Measured values as given in patent US20170202908A1 (ASAHI GROUP, published 2017).

Biological target: T1, Fc-mUmod, fusion protein of the mouse Umod protein (positions 1-616 of SEQ ID NO: 8) and the Fc domain of … (mouse; human, UniProt Q91X17 25-616)
T1 construct: Secreted from HEK293T cells, purified on protein A and immobilized on a 96-well plate; Positions 1-616 are the cloned range and start at the initiator Met; also called uromodulin; not shown: Fc domain of human IgG1
Assay: whole bacterial cells on plate-immobilized Fc-mUmod; bound cells counted by 16S rRNA real-time PCR, hIgG background subtracted
Method: Next, the Fc-mUmod protein and hIgG as a control Fc protein were respectively diluted with PBS so as to result in a concentration of 5 μg/ml, and the resultants were applied to a 96-well plate (50 μl per well) and immobilized at 4° C. overnight. Each well was washed three times with 200 μl of PBS. Then, a 1% BSA/PBS solution (200 μl) was applied thereto for blocking at room temperature for 2 hours. Then, the blocking solution was removed. Thereafter, bacterial cells of each test lactic acid bacterium, which had been suspended in PBS so as to result in a concentration of 10⁶ cells/50 μl, were applied thereto (50 μl per well) and incubated at room temperature for 2 hours. Each well was washed five times with 200 μl of PBS and then PBS was completely removed.
DNA was extracted from bacterial cells bound to each plate using NucleoSpin™ Tissue (Takara) in accordance with the provided protocol. Real-time PCR was performed using the extracted DNA as a template and universal primers targeting the 16S rRNA gene (F: 5′-[…]-3′ (SEQ ID NO: 12), R: 5′-[…]-3′ (SEQ ID NO: 13)). The number of bacterial cells bound to Fc-mUmod and the number of bacterial cells bound to hIgG were quantitatively determined in accordance with the protocol provided with SYBR™ Premix Ex Taq™ II (Tli RNaseH Plus) (Takara).

T1 sequence (Q91X17 25-616): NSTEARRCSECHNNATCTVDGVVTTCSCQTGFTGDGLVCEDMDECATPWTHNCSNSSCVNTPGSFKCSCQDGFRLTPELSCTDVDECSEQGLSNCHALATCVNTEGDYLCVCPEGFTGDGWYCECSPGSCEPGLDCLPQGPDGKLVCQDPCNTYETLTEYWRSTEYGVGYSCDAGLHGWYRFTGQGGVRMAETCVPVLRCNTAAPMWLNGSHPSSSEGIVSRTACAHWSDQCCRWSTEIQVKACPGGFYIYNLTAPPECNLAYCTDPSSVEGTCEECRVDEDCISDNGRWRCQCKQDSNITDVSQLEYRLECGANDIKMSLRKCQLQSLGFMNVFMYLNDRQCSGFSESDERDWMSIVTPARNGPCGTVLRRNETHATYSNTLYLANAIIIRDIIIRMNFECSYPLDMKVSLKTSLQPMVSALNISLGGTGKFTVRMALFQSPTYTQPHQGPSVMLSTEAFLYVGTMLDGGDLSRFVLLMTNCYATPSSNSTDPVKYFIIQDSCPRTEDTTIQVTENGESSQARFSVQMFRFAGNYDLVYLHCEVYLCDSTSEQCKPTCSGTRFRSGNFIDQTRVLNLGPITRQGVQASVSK

binding result: binds
B1: S-layer protein A (SlpA protein) of the Lactobacillus acidophilus strain L-92 (other)
chain: AVSTVSAATTINASSSAINTNTNAKYDVDVTPSVSAVAANTANNTPAIAGNLTGTISASYNGKTYTANLKADTENATITAAGSTTAVKPAELAAGVAYTVTVNDVSFNFGSENAGKTVTLGSANSNVKFTGTNSDNQTETNVSTLKVKLDQNGVASLTNVSIANVYAINTTDNSNVNFYDVTSGATVTNGAVSVNADNQGQVNVANVVAAINSKYFAAQYADKKLNTRTANTEDAIKAALKDQKIDVNSVGYFKAPHTFTVNVKATSNTNGKSATLPVVVTVPNVAEPTVASVSKRIMHNAYYYDKDAKRVGTDSVKRYNSVSVLPNTTTINGKTYYQVVENGKAVDKYINAANIDGTKRTLKHNAYVYASSKKRANKVVLKKGEVVTTYGASYTFKNGQKYYKIGDNTDKTYVKVANFR
notes: In the assays SlpA stood on the surface of whole L-92 bacterial cells, not as an isolated protein; also called surface layer protein (SlpA)
